Measurements from patent US20220409535A1, “BIOLOGICAL AGENT-EXOSOME COMPOSITIONS AND USES THEREOF” (The University of North Carolina at Chapel Hill, priority 2016, published 2022).
Converted amounts (≈) assume the structure as drawn.

Experiments:
MDCK MDR1 = assay: In vitro cytotoxicity (MTT), MDCK MDR1; type: cell-based, canine; conditions: Canis lupus familiaris; MDCK MDR1, 48 hours
Experimental: (§1) Briefly, cancer cells (MDCKMDR1, MDCKwt, and 3LL-M27) were seeded at 5,000 cells/well in 100 μL of media in 96-well plates overnight. […] Following the incubation, the cells were washed and incubated with MTT reagent as described in Batrakova et al., Mol. Pharm. 3:113 (2006) Epub 2006/04/04. The cytotoxic activity of PTX was then evaluated using a standard MTT assay (Ferrari et al., J. Immunol. Meth. 131:165 (1990)). The absorbance at 570 nm was measured using a Shimadzu RF5000 fluorescent spectrophotometer. The survival values were determined in relation to control cells cultured in drug-free media. All experiments were repeated at least three times. SEM values were less than 10%.

MDCK wt = assay: In vitro cytotoxicity (MTT), MDCK wt; type: cell-based, canine; conditions: Canis lupus familiaris, 48 hours
Experimental: as §1

3LL-M27 = assay: In vitro cytotoxicity (MTT), 3LL-M27; type: cell-based, murine; conditions: Mus musculus; 3LL-M27, 48 hours
Experimental: as §1

sigma receptor = assay: Receptor competitive inhibition by free anisamide; type: cell-based, murine; conditions: 3LL-M27 cells, one hour
Experimental: Receptor Competitive Inhibition. To determine whether AA-vectorized exosomes to sigma receptor were accumulated in cancer cells via receptor-mediated endocytosis, a receptor competitive inhibition study was carried out. For this purpose, first a lipophilic fluorescent dye, DiL, was incorporated into exosome membranes. Briefly, the supernatant of RAW 264.7 macrophage conditioned media free of cells and cellular debris was filtered with a 0.22 μm PES filter and incubated with DiL dye (4 μM) at 37° C. for 20 min. Following a 20-minute incubation, ExoQuick-TC™ exosome precipitation solution was added to the filtered supernatant, the mixture was vortexed, and incubated overnight at 4° C. Then, the mixture was vortexed again and subsequently centrifuged at 1500×g for 30 minute to pellet exosomes. The supernatant was discarded and the exosome pellet was re-suspended in PBS. Freshly-prepared fluorescently labeled exosomes or exosomes stored at −20° C. were used for all experiments.
Next, 3LL-M27 cells were seeded overnight at 50,000 cells/well in a 96-well plate. […] The fluorescence levels in cell suspensions were measured by a Shimadzu RF5000 fluorescent spectrophotometer, and adjusted for protein content analyzed by BCA Assay using the Pierce BCA Protein Assay Kit (Thermo Fisher Scientific, Waltham, Mass., USA). […]

hCMEC/D3 cells = assay: Flow cytometry of cell uptake of Mϕ exosomes and endocytosis markers; type: cell-based, human; conditions: CM-DiI labeled exosomes, 4 h
Experimental: Flow Cytometry of Cell Uptake. hCMEC/D3 cells were grown in 24-well plates at […] for 4-5 days to reach confluence. Exosomes were labeled by adding CM-DiI dyes (2 μg/ml, Life Technologies) to the medium before the first […] pelleting step. In the uptake mechanism studies, the cells were pretreated with endocytosis inhibitors, carbohydrates or EGTA for 0.5 h, and then co-treated with CM-DiI labeled exosomes (0.6×10^10 exosomes/ml) for 4 h. The inhibition of endocytosis markers uptake was studied similarly. The endocytosis markers used were Alexa Fluor 488-Transferrin (10 μg/ml, Life technologies) for clathrin mediated endocytosis, Alexa Fluor 488-CTB (5 μg/ml, Life technologies) for caveolae mediated endocytosis, and FITC-Dextran (70 kDa, Sigma) (10 mg/ml) for macropinocytosis. The antibody block assays were done by co-incubating exosomes with antibodies or isotope controls at 100 μg/ml for 4 h. The cells were washed trice by PBS, detached by 0.25% trypsin/EDTA, collected by centrifugation at 100 g for 10 min, fixed with 4% paraformaldehyde for 10 min, and then resuspended in 0.35 ml PBS. Viable singlets were gated based on forward scatter and side scatter. 5,000-10,000 viable singlets were recorded for each sample on Becton Dickinson LSRII (BD Biosciences) using 488 nm and 532 nm lasers. Unless otherwise noted in figure legend, data are not normalized and reported as mean fluorescence±SD of 3 replicate wells.

ICAM-1 = ICAM-1 expression in hCMEC/D3 cells by western blot; type: cell-based, human
Experimental: Protein expression was determined by western blot using β-actin as loading control.

[1] = Preservation of catalase enzymatic activity and stability of exoCAT; type: physicochemical; conditions: sonication conditions
Experimental: Enzymatic activity of catalase loaded into exosomes: The loading efficiency for different exoCAT formulations was assessed by catalase enzymatic activity using hydrogen peroxide decomposition assay (Zhao et al., Nanomedicine (Lond) 6:25 (2011)). For this purpose, different exoCAT formulations were incubated with pronase (0.1-0.2 mg/mL) for 3 hours at 37° C. Following the incubation, the aliquots were subjected for catalytic activity assessment as described above. The same assay was used to examine the preservation of catalase enzymatic activity in exosomes against proteases degradation. Stability of catalase was expressed in the residual activity vs. initial activity of catalase.

[2] = calculated from the molecular mass of the enzyme; cited from earlier work
[3] = Size of catalase exosomal formulations by DLS and NTA; type: physicochemical; conditions: DLS
Experimental: Characterization of different exoCAT formulations by (Dynamic Light Scattering) DLS, (Atomic Force Microscopy) AFM, Nanoparticle Tracking Analysis (NTA), and Hyperspectral microscopy: The effective hydrodynamic diameter of empty exosomes, or exosomes loaded with catalase was measured by DLS using the ZetaPlus' Zeta Potential Analyzer (Brookhaven Instruments, […]., USA) equipped with a 35 mW solid state laser (658 nm laser) as described in (Bronich et al., J. Amer. Chem. Soc. 122:8339 (2000); Vinogradov et al., Colloids Surfaces B-Biointerfaces 16:291 (1999)). The size, distribution, and number of particles for various exosomal formulations were also examined by NTA. For this purpose, exoCAT formulations were prepared at concentration 0.01 mg/mL, and evaluated using NanoSight 500, Version 2.2 (Wiltshire, United Kingdom). The morphology of exoCAT aggregates was investigated by AFM. Different exoCAT formulations were prepared in 50 mM phosphate buffer, pH 7.4 at total protein 10 μg/mL. A drop of the sample was placed on a glass slide, and dried under an argon flow. The AFM imaging was operated as described earlier (Zhao et al., Nanomedicine (Lond) 6:25 (2011)).

6-OHDA-intoxicated mice = assay: Immunohistochemical and stereological analyses in 6-OHDA PD mouse model; conditions: i.n.
Experimental: For the detection of microglia activation, tissue sections were incubated with primary monoclonal rat anti-mouse anti-CD11b antibodies (1:500 dilution), and secondary biotinylated goat anti-rat antibodies (Vector Laboratories, Burlingame, Calif., 1:200 dilution). […] In addition, levels of astrocytosis were assessed in the ventral midbrain region by fluorescent analysis of glial fibrillary acidic protein (GFAP) expression. For the GFAP staining, tissue sections were permeabilized with 0.01% Triton X-100 in TBS for 30 minutes and blocked for 1 hour with 10% normal goat serum (NGS, Vector Laboratories Inc., Burlingame, Calif.), then incubated with rabbit anti-GFAP primary polyclonal antibodies ab7260 (AbCam, Cambridge, Mass.) 1:100 dilution for 16 hours at 4° C. […] Immunoreactivity was evaluated by fluorescent analysis using confocal microscope Zeiss 510 Meta Confocal Laser Scanning Microscope (Jena, Germany), and ImageJ software (NIH, Bethesda, Mass., USA).

PC12 cells = assay: Cell viability (MTT) of PC12 cells exposed to 6-OHDA; type: cell-based, rat
Experimental: Cell viability assay: The protection of PC12 cell by exoCAT prepared by sonication was assessed by MTT assay. For this purpose, PC12 cells (1×10^5 cells/mL) were seeded into a 96-well plate and allowed to attach overnight. Then, the cells were exposed to 200 μM 6-OHDA and different exoCAT formulations, or catalase alone, or empty exosomes for four hours. Following the incubation, the cells were washed 3 times with ice-cold PBS, and incubated with the corresponding exoCAT formulations, or catalase alone, or empty exosomes for another 24 hours. Following the treatment, 20 μL MTT (5 mg/mL) was added into each well. After 3 hours of incubation at 37° C., the medium containing MTT was removed; and 100 μL DMSO was added into each well to dissolve the purple MTT formazan. Absorbances were read at λ=570 nm by a microplate reader, and cell viability was expressed as a percentage of viable cells in the treated groups compared to the untreated control group.

[4] = Patterson et al.; cited from earlier work
[5] = Brain delivery of BDNF and Mϕ exosomes complex; type: in vivo, mouse; conditions: brain-inflamed mice, 10 min
Experimental: Animal Procedure. Mice were anesthetized with 40% urethane (4 g/kg) by intraperitoneal injection. Iodine labeled substances (4×10^5 cpm) were injected to the right jugular vein. At each time point, blood was collected from the left carotid artery, allowed to clot and then centrifuged at 5400 g for 10 min to collect serum. The whole brain and peripheral organs were removed and weighed immediately after blood sampling. The radioactivity of serum and tissues were counted and normalized to injected dose (ID) by volume (ml) or weight (g) (% ID/ml or % ID/g). An injection check representing ID was also counted (n=3).
PK data analysis. The noncompartmental PK parameters Vss (ml), Cl (ml/min), MRTlast and MRTinf (h) were estimated using Phoenix® WinNonlin® 6.3 (Pharsight). The Ki (slope) and Vi (y-intercept) were calculated from the linear portion of multiple-time regression analysis (Price et al., J. Pharmacol. Exper. Ther. 333:253 (2010); Patlak et al., J. Cerebral Blood Flow Metab. 3:1 (1983); Patlak et al., J. Cerebral Blood Flow Metab. 5:584 (1985)). Brain/serum ratio (Am/Cpt, ml/g) of co-injected BSA was used to correct for the vascular space or leakage (Banks et al, Brain Behav. Immun. 2010, 24:102 (2010)), and subtracted from that of tested substance to get the delta brain/serum ratio. […]
We further determined if Mϕ exosomes would ferry BDNF to the brain. […]

Q: Which IC50 (MDCK MDR1) does the source give for CC(=O)O[C@H]1C(=O)[C@@]2(C)[C@H]([C@H](OC(=O)c3ccccc3)[C@]3(O)C[C@H](OC(=O)[C@H](O)[C@@H](NC(=O)c4ccccc4)c4ccccc4)C(C)=C1C3(C)C)[C@]1(OC(C)=O)CO[C@@H]1C[C@@H]2O [PTX, paclitaxel] here?
A: The IC50 was greater than 10 µg/mL.

Q: And the IC50 (MDCK wt)?
A: The IC50 was 0.429 ± 0.0634 µg/mL (≈ 0.502 µM).

Q: What about the IC50 (3LL-M27) of the same molecule?
A: The IC50 was 0.126 ± 0.0313 µg/mL (≈ 0.148 µM).

Q: For COc1ccc(C(N)=O)cc1 [free AA, anisamide], which “competitive inhibition of uptake by free AA” value (sigma receptor) is on record?
A: The value was “not able completely inhibit exosome uptake”.

Q: What does the source list for N[C@H]1C(O)O[C@H](CO)[C@@H](O)[C@@H]1O (stereo partly drawn) [glucosamine]?
A: effect on uptake of Mϕ exosomes (hCMEC/D3 cells): inhibited the uptake at lower concentrations; ICAM-1 expression (ICAM-1): did not inhibit the expression of ICAM-1

B1: Catalase alone: Catalase from bovine liver (protein, UniProt P00432 2-527, looked up)
Catalase: ADNRDPASDQMKHWKEQRAAQKPDVLTTGGGNPVGDKLNSLTVGPRGPLLVQDVVFTDEMAHFDRERIPERVVHAKGAGAFGYFEVTHDITRYSKAKVFEHIGKRTPIAVRFSTVAGESGSADTVRDPRGFAVKFYTEDGNWDLVGNNTPIFFIRDALLFPSFIHSQKRNPQTHLKDPDMVWDFWSLRPESLHQVSFLFSDRGIPDGHRHMNGYGSHTFKLVNANGEAVYCKFHYKTDQGIKNLSVEDAARLAHEDPDYGLRDLFNAIATGNYPSWTLYIQVMTFSEAEIFPFNPFDLTKVWPHGDYPLIPVGKLVLNRNPVNYFAEVEQLAFDPSNMPPGIEPSPDKMLQGRLFAYPDTHRHRLGPNYLQIPVNCPYRARVANYQRDGPMCMMDNQGGAPNYYPNSFSAPEHQPSALEHRTHFSGDVQRFNSANDDNVTQVRTFYLKVLNEEQRKRLCENIAGHLKDAQLFIQKKAVKNFSDVHPEYGSRIQALLDKYNEEKPKNAVHTYVQHGSHLSAREKANL
Q: With B1 as the molecule, how does the “catalase enzymatic activity upon sonication” value [1] read?
A: Its value is 14%.

Q: And the “theoretical diameter of a single protein globule” value [2]?
A: The value was 10.5 nm.

Q: What about the “Deff (nm)” value [3] of the same molecule?
A: The value was 9.5 nm.

Q: And the PdI [3]?
A: Its PdI is 0.10.

Q: What about the “Deff (nm)” value ([3]; listed as naked catalase) of the same molecule?
A: The value was 9.5 nm.

Q: And the “anti-inflammatory and neuroprotective effect” value (6-OHDA-intoxicated mice)?
A: The value was “not effective in decreasing inflammation or providing neuroprotection”.

Q: And the “neuroprotective activity (neuronal survival, MTT)” value (PC12 cells)?
A: The value was “did not protect PC12 cells”.

B2: BDNF: brain derived neurotrophic factor (protein, UniProt P23560 19-247, looked up)
Neurotrophic factor BDNF …: APMKEANIRGQGGLAYPGVRTHGTLESVNGPKAGSRGLTSLADTFEHVIEELLDEDQKVRPNEENNKDADLYTSRVMLSSQVPLEPPLLFLLEEYKNYLDAANMSMRVRRHSDPARRGELSVCDSISEWVTAADKKTAVDMSGGTVTVLEKVPVSKGQLKQYFYETKCNPMGYTKEGCRGIDKRHWNSQCRTTQSYVRALTMDSKKRIGWRFIRIDTSCVCTLTIKRGR
Q: With B2 as the molecule, how does the isoelectric point [4] read?
A: The isoelectric point was 9.99.

Q: What about the “brain accumulation of BDNF” value [5] of the same molecule?
A: The value was “the difference was not significant”.
